Reference: patent publication US20250326865A1, “C-MET PROTEIN-BINDING PEPTIDE COMPLEX” (PeptiDream Inc., priority 2021, published 2025)
Starred links: 1 amine or outer side, 2 acyl side, 3 side chain; linkers in the order of their positions; H or OH if unused. Positions of bridges follow the written chain, without caps; N, C: chain ends. Non-standard residues stand in square brackets, D forms with d. Chains are numbered I, II in the order given. No end group written: not given here. CO(CH2)2(OCH2CH2)17CO = O=C(CCOCCOCCOCCOCCOCCOCCOCCOCCOCCOCCOCCOCCOCCOCCOCCOCCOCCC(=O)[*:2])[*:1]; CO(CH2CH2O)9CH2CH2CO = O=C(CCOCCOCCOCCOCCOCCOCCOCCOCCOCCC(=O)[*:2])[*:1]; NMeF = CN[C@@H](Cc1ccccc1)C(=O)O; Ahp(2) = CCCCC[C@H](N)C(=O)O; NMeC = CN[C@@H](CS)C(=O)O

B1: Peptide complex No. 45 in Table 4 (peptide SEQ ID NO: 32, GFs_c-Met-00014297p; linker SEQ ID NO: 38) (peptide)
peptide: {CH2CO}-[NMeF]TAVS[NMeF]DPD[Ahp(2)]PRWA[NMeC]
chain: GK[CO(CH2)2(OCH2CH2)17CO]KG
modifications: thioether I:N-I:15 (inferred); also: homodimer of two cyclic peptides joined by linker G-K-cPEG17c-K-G, peptide C-terminus on linker
B2: Peptide complex No. 42 in Table 4 (peptide SEQ ID NO: 30, GFs_c-Met-00014304p; linker SEQ ID NO: 36) (peptide)
peptide: {CH2CO}-[NMeF]TAVS[NMeF]DSDRPRWS[NMeC]
chain: GK[CO(CH2CH2O)9CH2CH2CO]KG
modifications: thioether I:N-I:15 (inferred); also: homodimer of two cyclic peptides joined by linker G-K-cPEG9c-K-G, peptide C-terminus on linker
B3: Peptide complex No. 27 in Table 4 (peptide SEQ ID NO: 23, GFs_c-Met-00014298p; linker SEQ ID NO: 38) (peptide)
peptide: {CH2CO}-[NMeF]EAVS[NMeF]DPD[Ahp(2)]PRWA[NMeC]
chain: GK[CO(CH2)2(OCH2CH2)17CO]KG
modifications: thioether I:N-I:15 (inferred); also: homodimer of two cyclic peptides joined by linker G-K-cPEG17c-K-G, peptide C-terminus on linker
B4: Peptide complex No. 33 in Table 4 (peptide SEQ ID NO: 26, GFs_c-Met-00014299p; linker SEQ ID NO: 38) (peptide)
peptide: {CH2CO}-[NMeF]QAVS[NMeF]DPD[Ahp(2)]PRWA[NMeC]
chain: GK[CO(CH2)2(OCH2CH2)17CO]KG
modifications: thioether I:N-I:15 (inferred); also: homodimer of two cyclic peptides joined by linker G-K-cPEG17c-K-G, peptide C-terminus on linker
B5: Peptide complex No. 28 in Table 4 (peptide SEQ ID NO: 23, GFs_c-Met-00014298p; linker SEQ ID NO: 36) (peptide)
peptide: {CH2CO}-[NMeF]EAVS[NMeF]DPD[Ahp(2)]PRWA[NMeC]
chain: GK[CO(CH2CH2O)9CH2CH2CO]KG
modifications: thioether I:N-I:15 (inferred); also: homodimer of two cyclic peptides joined by linker G-K-cPEG9c-K-G, peptide C-terminus on linker
B6: Peptide complex No. 47 in Table 4 (peptide SEQ ID NO: 33, GFs_c-Met-00014300p; linker SEQ ID NO: 38) (peptide)
peptide: {CH2CO}-[NMeF]TAVS[NMeF]DPD[Ahp(2)]PRWS[NMeC]
chain: GK[CO(CH2)2(OCH2CH2)17CO]KG
modifications: thioether I:N-I:15 (inferred); also: homodimer of two cyclic peptides joined by linker G-K-cPEG17c-K-G, peptide C-terminus on linker
B7: Peptide complex No. 37 in Table 4 (peptide SEQ ID NO: 28, GFs_c-Met-00014303p; linker SEQ ID NO: 38) (peptide)
peptide: {CH2CO}-[NMeF]TRVS[NMeF]DSD[Ahp(2)]PRWS[NMeC]
chain: GK[CO(CH2)2(OCH2CH2)17CO]KG
modifications: thioether I:N-I:15 (inferred); also: homodimer of two cyclic peptides joined by linker G-K-cPEG17c-K-G, peptide C-terminus on linker
B8: Peptide complex No. 38 in Table 4 (peptide SEQ ID NO: 28, GFs_c-Met-00014303p; linker SEQ ID NO: 36) (peptide)
peptide: {CH2CO}-[NMeF]TRVS[NMeF]DSD[Ahp(2)]PRWS[NMeC]
chain: GK[CO(CH2CH2O)9CH2CH2CO]KG
modifications: thioether I:N-I:15 (inferred); also: homodimer of two cyclic peptides joined by linker G-K-cPEG9c-K-G, peptide C-terminus on linker
B9: Peptide complex No. 26 in Table 4 (peptide SEQ ID NO: 22, GFs_c-Met-00014295p; linker SEQ ID NO: 36) (peptide)
peptide: {CH2CO}-[NMeF]EAVS[NMeF]DSD[Ahp(2)]PRWA[NMeC]
chain: GK[CO(CH2CH2O)9CH2CH2CO]KG
modifications: thioether I:N-I:15 (inferred); also: homodimer of two cyclic peptides joined by linker G-K-cPEG9c-K-G, peptide C-terminus on linker
B10: Peptide complex No. 30 in Table 4 (peptide SEQ ID NO: 24, GFs_c-Met-00014301p; linker SEQ ID NO: 36) (peptide)
peptide: {CH2CO}-[NMeF]EAVS[NMeF]DPD[Ahp(2)]PRWS[NMeC]
chain: GK[CO(CH2CH2O)9CH2CH2CO]KG
modifications: thioether I:N-I:15 (inferred); also: homodimer of two cyclic peptides joined by linker G-K-cPEG9c-K-G, peptide C-terminus on linker
B11: Peptide complex No. 43 in Table 4 (peptide SEQ ID NO: 31, Gfs_c-Met-00014294p; linker SEQ ID NO: 38) (peptide)
peptide: {CH2CO}-[NMeF]TAVS[NMeF]DSD[Ahp(2)]PRWA[NMeC]
chain: GK[CO(CH2)2(OCH2CH2)17CO]KG
modifications: thioether I:N-I:15 (inferred); also: homodimer of two cyclic peptides joined by linker G-K-cPEG17c-K-G, peptide C-terminus on linker
B12: Peptide complex No. 34 in Table 4 (peptide SEQ ID NO: 26, GFs_c-Met-00014299p; linker SEQ ID NO: 36) (peptide)
peptide: {CH2CO}-[NMeF]QAVS[NMeF]DPD[Ahp(2)]PRWA[NMeC]
chain: GK[CO(CH2CH2O)9CH2CH2CO]KG
modifications: thioether I:N-I:15 (inferred); also: homodimer of two cyclic peptides joined by linker G-K-cPEG9c-K-G, peptide C-terminus on linker
B13: Peptide complex No. 39 in Table 4 (peptide SEQ ID NO: 29, GFs_c-Met-00014306p; linker SEQ ID NO: 38) (peptide)
peptide: {CH2CO}-[NMeF]TAVSLDSD[Ahp(2)]PRWS[NMeC]
chain: GK[CO(CH2)2(OCH2CH2)17CO]KG
modifications: thioether I:N-I:15 (inferred); also: homodimer of two cyclic peptides joined by linker G-K-cPEG17c-K-G, peptide C-terminus on linker
B14: Peptide complex No. 35 in Table 4 (peptide SEQ ID NO: 27, GFs_c-Met-00014302p; linker SEQ ID NO: 38) (peptide)
peptide: {CH2CO}-[NMeF]QAVS[NMeF]DPD[Ahp(2)]PRWS[NMeC]
chain: GK[CO(CH2)2(OCH2CH2)17CO]KG
modifications: thioether I:N-I:15 (inferred); also: homodimer of two cyclic peptides joined by linker G-K-cPEG17c-K-G, peptide C-terminus on linker
B15: Peptide complex No. 46 in Table 4 (peptide SEQ ID NO: 32, GFs_c-Met-00014297p; linker SEQ ID NO: 36) (peptide)
peptide: {CH2CO}-[NMeF]TAVS[NMeF]DPD[Ahp(2)]PRWA[NMeC]
chain: GK[CO(CH2CH2O)9CH2CH2CO]KG
modifications: thioether I:N-I:15 (inferred); also: homodimer of two cyclic peptides joined by linker G-K-cPEG9c-K-G, peptide C-terminus on linker
B16: Peptide complex No. 32 in Table 4 (peptide SEQ ID NO: 25, GFs_c-Met-00014296p; linker SEQ ID NO: 36) (peptide)
peptide: {CH2CO}-[NMeF]QAVS[NMeF]DSD[Ahp(2)]PRWA[NMeC]
chain: GK[CO(CH2CH2O)9CH2CH2CO]KG
modifications: thioether I:N-I:15 (inferred); also: homodimer of two cyclic peptides joined by linker G-K-cPEG9c-K-G, peptide C-terminus on linker
B17: Peptide complex No. 36 in Table 4 (peptide SEQ ID NO: 27, GFs_c-Met-00014302p; linker SEQ ID NO: 36) (peptide)
peptide: {CH2CO}-[NMeF]QAVS[NMeF]DPD[Ahp(2)]PRWS[NMeC]
chain: GK[CO(CH2CH2O)9CH2CH2CO]KG
modifications: thioether I:N-I:15 (inferred); also: homodimer of two cyclic peptides joined by linker G-K-cPEG9c-K-G, peptide C-terminus on linker
B18: Peptide complex No. 31 in Table 4 (peptide SEQ ID NO: 25, GFs_c-Met-00014296p; linker SEQ ID NO: 38) (peptide)
peptide: {CH2CO}-[NMeF]QAVS[NMeF]DSD[Ahp(2)]PRWA[NMeC]
chain: GK[CO(CH2)2(OCH2CH2)17CO]KG
modifications: thioether I:N-I:15 (inferred); also: homodimer of two cyclic peptides joined by linker G-K-cPEG17c-K-G, peptide C-terminus on linker
B19: Peptide complex No. 29 in Table 4 (peptide SEQ ID NO: 24, GFs_c-Met-00014301p; linker SEQ ID NO: 38) (peptide)
peptide: {CH2CO}-[NMeF]EAVS[NMeF]DPD[Ahp(2)]PRWS[NMeC]
chain: GK[CO(CH2)2(OCH2CH2)17CO]KG
modifications: thioether I:N-I:15 (inferred); also: homodimer of two cyclic peptides joined by linker G-K-cPEG17c-K-G, peptide C-terminus on linker
B20: Peptide complex No. 40 in Table 4 (peptide SEQ ID NO: 29, GFs_c-Met-00014306p; linker SEQ ID NO: 36) (peptide)
peptide: {CH2CO}-[NMeF]TAVSLDSD[Ahp(2)]PRWS[NMeC]
chain: GK[CO(CH2CH2O)9CH2CH2CO]KG
modifications: thioether I:N-I:15 (inferred); also: homodimer of two cyclic peptides joined by linker G-K-cPEG9c-K-G, peptide C-terminus on linker
B21: Peptide complex No. 48 in Table 4 (peptide SEQ ID NO: 33, GFs_c-Met-00014300p; linker SEQ ID NO: 36) (peptide)
peptide: {CH2CO}-[NMeF]TAVS[NMeF]DPD[Ahp(2)]PRWS[NMeC]
chain: GK[CO(CH2CH2O)9CH2CH2CO]KG
modifications: thioether I:N-I:15 (inferred); also: homodimer of two cyclic peptides joined by linker, peptide C-terminus on linker
B22: Peptide complex No. 44 in Table 4 (peptide SEQ ID NO: 31, Gfs_c-Met-00014294p; linker SEQ ID NO: 36) (peptide)
peptide: {CH2CO}-[NMeF]TAVS[NMeF]DSD[Ahp(2)]PRWA[NMeC]
chain: GK[CO(CH2CH2O)9CH2CH2CO]KG
modifications: thioether I:N-I:15 (inferred); also: homodimer of two cyclic peptides joined by linker G-K-cPEG9c-K-G, peptide C-terminus on linker
B23: Peptide complex No. 41 in Table 4 (peptide SEQ ID NO: 30, GFs_c-Met-00014304p; linker SEQ ID NO: 38) (peptide)
peptide: {CH2CO}-[NMeF]TAVS[NMeF]DSDRPRWS[NMeC]
chain: GK[CO(CH2)2(OCH2CH2)17CO]KG
modifications: thioether I:N-I:15 (inferred); also: homodimer of two cyclic peptides joined by linker G-K-cPEG17c-K-G, peptide C-terminus on linker

Target: human c-Met protein (human, UniProt P08581 25-1390)
Sequence (P08581 25-1390): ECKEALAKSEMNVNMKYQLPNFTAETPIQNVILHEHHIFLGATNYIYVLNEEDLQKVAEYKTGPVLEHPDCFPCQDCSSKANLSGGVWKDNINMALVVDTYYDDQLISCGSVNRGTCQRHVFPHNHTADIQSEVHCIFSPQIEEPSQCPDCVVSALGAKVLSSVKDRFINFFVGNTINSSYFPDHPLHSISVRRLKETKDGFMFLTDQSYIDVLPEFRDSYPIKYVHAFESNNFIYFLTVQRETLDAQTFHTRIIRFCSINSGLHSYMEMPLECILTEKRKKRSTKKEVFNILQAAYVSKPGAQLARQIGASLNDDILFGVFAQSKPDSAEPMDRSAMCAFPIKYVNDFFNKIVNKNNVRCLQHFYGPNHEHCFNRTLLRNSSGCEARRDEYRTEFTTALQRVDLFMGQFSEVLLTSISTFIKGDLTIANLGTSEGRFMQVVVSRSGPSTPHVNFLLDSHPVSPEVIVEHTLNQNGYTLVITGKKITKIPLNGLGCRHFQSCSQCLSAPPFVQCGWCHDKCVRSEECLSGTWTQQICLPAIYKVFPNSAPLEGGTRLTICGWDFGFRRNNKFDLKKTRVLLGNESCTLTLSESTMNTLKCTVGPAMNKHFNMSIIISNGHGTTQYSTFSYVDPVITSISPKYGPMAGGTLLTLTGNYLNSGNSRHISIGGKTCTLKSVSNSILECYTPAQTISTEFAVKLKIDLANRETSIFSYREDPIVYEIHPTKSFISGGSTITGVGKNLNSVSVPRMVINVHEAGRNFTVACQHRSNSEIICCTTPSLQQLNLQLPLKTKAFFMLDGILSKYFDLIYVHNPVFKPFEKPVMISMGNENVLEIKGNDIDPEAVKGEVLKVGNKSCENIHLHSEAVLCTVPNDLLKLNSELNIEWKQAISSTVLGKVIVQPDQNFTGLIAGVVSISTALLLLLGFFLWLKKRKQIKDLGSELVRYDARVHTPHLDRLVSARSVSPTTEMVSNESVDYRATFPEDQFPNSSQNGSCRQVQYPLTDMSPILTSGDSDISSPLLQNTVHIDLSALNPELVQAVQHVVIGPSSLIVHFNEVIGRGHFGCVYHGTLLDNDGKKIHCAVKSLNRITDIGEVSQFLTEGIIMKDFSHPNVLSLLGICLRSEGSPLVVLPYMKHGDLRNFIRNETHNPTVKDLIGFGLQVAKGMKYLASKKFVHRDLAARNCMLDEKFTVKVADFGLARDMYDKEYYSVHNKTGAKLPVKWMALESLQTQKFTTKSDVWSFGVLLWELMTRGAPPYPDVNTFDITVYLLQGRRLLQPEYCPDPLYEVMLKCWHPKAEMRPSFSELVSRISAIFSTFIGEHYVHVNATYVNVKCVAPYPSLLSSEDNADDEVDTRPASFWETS
Assay: cell-based or functional assay

Row | Binder | C-Met Agonist Activity (C50; nM): phospho-c-Met AlphaLISA, A431 cells [nM]
1 | B1 | 0.71
2 | B2 | 0.33
3 | B3 | 2.37
4 | B4 | 2.05
5 | B5 | 1.24
6 | B6 | 0.5
7 | B7 | 0.49
8 | B8 | 0.65
9 | B9 | 0.75
10 | B10 | 0.81
11 | B11 | 0.45
12 | B12 | 1.26
13 | B13 | 1.44
14 | B14 | 0.92
15 | B15 | 0.67
16 | B16 | 0.61
17 | B17 | 0.73
18 | B18 | 0.68
19 | B19 | 0.88
20 | B20 | 2.13
21 | B21 | 0.35
22 | B22 | 0.33
23 | B23 | 0.32
